Source: patent publication US20220056141A1 (DEUTSCHES KREBSFORSCHUNGSZENTRUM STIFTUNG DES OFFENTLICHEN …, published 2022)

Key:
[1] = target: T1, CD3 on Jurkat cells (human, UniProt P07766 23-207); assay: flow cytometry (value under the bar; by the legend the EC50 of the binding to Jurkat cells of FIG. 6)
T1 construct: whole, on cells; also called Jurkat (CD3+); human cluster of differentiation 3 (CD3) antigen
Experimental: (§1) In addition, antibody binding affinity was also tested using binding of the antibody to its target(s) as expressed on cells. Analyzed is the binding of CC-2 variants to Nalm16 cells expressing FLT3 (FIG. 4) or Jurkat cells expressing CD3 (FIG. 6). Variants V1 to V9 (with V6 being V6-V6) were produced after transient transfection of CHO cells using the insert sequences listed above. The antibodies were purified by protein A affinity- and size exclusion-chromatography. […] To measure antibody binding to FLT3 and CD3 NALM16 (FLT3+) and Jurkat (CD3+) cells were incubated with the respective variants for 30 min, washed, stained with a goat anti human Fcγ-specific and PE-conjugated secondary antibody (Jackson Immuno Research), washed again and analyzed by flow cytometry (FACSCalibur, BD Biosciences).

[2] = target: T1, CD3 on Jurkat cells; assay: flow cytometry on Jurkat cells (CD3+), 30 min incubation, PE-conjugated goat anti-human Fc-gamma secondary antibody
Experimental: as §1

T1 sequence (P07766 23-207): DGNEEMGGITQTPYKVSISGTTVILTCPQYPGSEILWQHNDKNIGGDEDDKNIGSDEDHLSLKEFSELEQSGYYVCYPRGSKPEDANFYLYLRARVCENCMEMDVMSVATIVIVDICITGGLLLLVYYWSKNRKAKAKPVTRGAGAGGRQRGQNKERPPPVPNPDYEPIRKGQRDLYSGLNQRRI

| Binder | EC50 [1] | EC50 (read off the curve) [2] |
| --- | --- | --- |
| bispecific FLT3xCD3 IgGsc antibody V6-V9 (bispecific antibody, Fc-attenuated IgGsc format; also called CC-2 V9) heavy: QVQLQQPGAELVKPGASLKLSCKSSGYTFTSYWMHWVRQRPGHGLEWIGEIDPSDSYKDYNQKFKDKATLTVDRSSNTAYMHLSSLTSDDSAVYYCARAITTTPFDFWGQGTTLTVSSASTKGPSVFPLAPSSKSTSGGTAALGCLVKDYFPEPVTVSWNSGALTSGVHTFPAVLQSSGLYSLSSVVTVPSSSLGTQTYICNVNHKPSNTKVDKKVEPKSCDKTHTCPPCPAPPVAGPSVFLFPPKPKDTLMISRTPEVTCVVVGVSHEDPEVKFNWYVDGVEVHNAKTKPREEQYNSTYRVVSVLTVLHQDWLNGKEYKCKVSNKQLPSPIEKTISKAKGQPREPQVYTLPPSRDELTKNQVSLTCLVKGFYPSDIAVEWESNGQPENNYKTTPPVLDSDGSFFLYSKLTVDKSRWQQGNVFSCSVMHEALHNHYTQKSLSLSPGKSGEVQLVESGGGLVQPGGSLRLSCAASGYSFTGYTMNWVRQAPGKGLEWVALINPYKGVSTYNQKFKDRFTISVDKSKNTAYLQMNSLRAEDTAVYYCARSGYYGDSDWYFDVWGQGTLVTVSSGGGGSGGGGSGGGGSDIQMTQSPSSLSASVGDRVTITCRASQDIRNYLNWYQQKPGKAPKLLIYYTSRLESGVPSRFSGSGSGTDYTLTISSLQPEDFATYYCQQGNTLPWTFGQGTKVEIK light: DIVLTQSPATLSVTPGDSVSLSCRASQSISNNLHWYQQKSHESPRLLIKYASQSISGIPSRFSGSGSGTDFTLSINSVETEDFGVYFCQQSNTWPYTFGGGTKLEIKRTVAAPSVFIFPPSDEQLKSGTASVVCLLNNFYPREAKVQWKVDNALQSGNSQESVTEQDSKDSTYSLSSTLTLSKADYEKHKVYACEVTHQGLSSPVTKSFNRGEC | 4.1 nM | ~5 nM |
| mouse FLT3 (4G8) x CD3 (humanized UCHT1) bispecific IgGsc antibody V6-V6 (bispecific antibody, also called CC-2; parental 4G8 x UCHT1) heavy: QVQLQQPGAELVKPGASLKLSCKSSGYTFTSYWMHWVRQRPGHGLEWIGEIDPSDSYKDYNQKFKDKATLTVDRSSNTAYMHLSSLTSDDSAVYYCARAITTTPFDFWGQGTTLTVSSASTKGPSVFPLAPSSKSTSGGTAALGCLVKDYFPEPVTVSWNSGALTSGVHTFPAVLQSSGLYSLSSVVTVPSSSLGTQTYICNVNHKPSNTKVDKKVEPKSCDKTHTCPPCPAPPVAGPSVFLFPPKPKDTLMISRTPEVTCVVVGVSHEDPEVKFNWYVDGVEVHNAKTKPREEQYNSTYRVVSVLTVLHQDWLNGKEYKCKVSNKQLPSPIEKTISKAKGQPREPQVYTLPPSRDELTKNQVSLTCLVKGFYPSDIAVEWESNGQPENNYKTTPPVLDSDGSFFLYSKLTVDKSRWQQGNVFSCSVMHEALHNHYTQKSLSLSPGKSGDIQMTQSPSSLSASVGDRVTITCRASQDIRNYLNWYQQKPGKAPKLLIYYTSRLESGVPSRFSGSGSGTDYTLTISSLQPEDFATYYCQQGNTLPWTFGQGTKVEIKGGGGSGGGGSGGGGSEVQLVESGGGLVQPGGSLRLSCAASGYSFTGYTMNWVRQAPGKGLEWVALINPYKGVSTYNQKFKDRFTISVDKSKNTAYLQMNSLRAEDTAVYYCARSGYYGDSDWYFDVWGQGTLVTVSS light: DIVLTQSPATLSVTPGDSVSLSCRASQSISNNLHWYQQKSHESPRLLIKYASQSISGIPSRFSGSGSGTDFTLSINSVETEDFGVYFCQQSNTWPYTFGGGTKLEIKRTVAAPSVFIFPPSDEQLKSGTASVVCLLNNFYPREAKVQWKVDNALQSGNSQESVTEQDSKDSTYSLSSTLTLSKADYEKHKVYACEVTHQGLSSPVTKSFNRGEC | 10.8 nM | ~10 nM |
